Experimental data reported in patent US20140087995A1 (published 2014).
Numbered stars: 1 amine (or outer) side, 2 acyl side, 3 side chain; on linkers, the order of the positions; unused ones are H or OH. Bridge positions count the residues as written; N and C are the ends. Side chains are listed from the residue outwards. Ends that are not written are not given here. * marks the point of attachment. C20 diacid = O=C(O)CCCCCCCCCCCCCCCCCCC(=O)*; γGlu = O=C(O)[C@H](CCC(=O)[*:2])N[*:1]; AEEA = NCCOCCOCC(=O)O

T1: human calcitonin receptor (human, UniProt P30988 25-474)
T1 sequence (looked up): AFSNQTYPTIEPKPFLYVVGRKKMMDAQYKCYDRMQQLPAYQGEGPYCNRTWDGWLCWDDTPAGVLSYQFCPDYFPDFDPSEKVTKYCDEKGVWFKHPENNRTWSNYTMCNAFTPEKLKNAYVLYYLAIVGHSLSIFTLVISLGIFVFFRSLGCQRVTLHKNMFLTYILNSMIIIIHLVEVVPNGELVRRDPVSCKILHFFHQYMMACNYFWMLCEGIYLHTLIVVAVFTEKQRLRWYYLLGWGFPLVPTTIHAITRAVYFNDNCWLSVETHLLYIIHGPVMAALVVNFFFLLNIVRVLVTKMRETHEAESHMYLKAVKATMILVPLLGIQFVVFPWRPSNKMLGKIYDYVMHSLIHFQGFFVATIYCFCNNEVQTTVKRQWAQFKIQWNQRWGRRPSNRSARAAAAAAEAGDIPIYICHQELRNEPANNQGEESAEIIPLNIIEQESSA

T2: human calcitonin receptor (human, UniProt P30988 25-474)
T2 construct: whole, on cells; Used as membranes prepared from the transfected cells (Assay VII); also called hCTR; hCT
T2 sequence (looked up): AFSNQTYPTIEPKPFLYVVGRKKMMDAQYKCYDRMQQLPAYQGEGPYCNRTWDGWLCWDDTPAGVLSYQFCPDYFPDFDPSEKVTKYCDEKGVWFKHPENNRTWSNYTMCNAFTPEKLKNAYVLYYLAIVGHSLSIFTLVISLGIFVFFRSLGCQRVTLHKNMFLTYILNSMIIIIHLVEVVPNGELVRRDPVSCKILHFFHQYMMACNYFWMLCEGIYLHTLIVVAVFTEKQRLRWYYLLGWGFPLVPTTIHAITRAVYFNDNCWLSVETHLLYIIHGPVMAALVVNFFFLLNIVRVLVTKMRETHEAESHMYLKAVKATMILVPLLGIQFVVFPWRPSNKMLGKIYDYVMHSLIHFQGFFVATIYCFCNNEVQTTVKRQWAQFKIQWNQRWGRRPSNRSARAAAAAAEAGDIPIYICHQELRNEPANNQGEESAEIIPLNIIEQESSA


Tests used:
[1] = molecular target: T1, human calcitonin receptor; assay: cell-based or functional assay
[2] = molecular target: T2, human calcitonin receptor; assay: ratio IC50 human calcitonin receptor / IC50 human amylin receptor (Assays VII and V)
Procedure: The resulting pellet was resuspended, homogenized and centrifuged (20.000 rpm, 15 min) in a buffer containing 20 mM Na-HEPES and 0.1 mM EDTA (pH 7.4, buffer 2). The resulting pellet was resuspended in buffer 2 and protein concentration was measured (BCA protein Assay, Pierce). The homogenate was kept cold during the whole procedure. The membranes were kept at −80° C. until use. The assay was performed in a 384 well Optiplate (PerkinElmer) in a total volume of 40 ul. Membranes were mixed with SPA beads. Final concentration of membranes 35 ng/μL final and SPA beads was 0.05 mg/well. Test-compounds were dissolved in DMSO and further diluted in assay buffer (50 mM Hepes, pH 7.4, 1 mM CaCl2, 5 mM MgCl₂, 0.1% OA and 0.02% Tween20). […] The final mixture was incubated with shaking at 400 rpm for 120 min at 25° C. prior to centrifugation (1500 rpm, 10 min). Samples were analyzed on TopCounter™ (Packard). The IC₅₀ was calculated using (one site binding competition analysis) GraphPad Prism5 as a measure of receptor affinity.
Membranes were prepared in the following way; the cells were rinsed with PBS and incubated with Versene for approximately 5 min before harvesting. The cells were flushed with PBS and the cell-suspension was centrifuged for 5 min at 1000 rpm. Cells were homogenized (Ultrathurrax) in a buffer containing 20 mM Na-HEPES and 10 mM EDTA (pH 7.4) and centrifuged at 20.000 rpm for 15 min. The resulting pellet was resuspended, homogenized and centrifuged (20.000 rpm, 15 min) in a buffer containing 20 mM Na-HEPES and 0.1 mM EDTA (pH 7.4, buffer 2). The resulting pellet was resuspended in buffer 2 and protein concentration was measured (BCA protein Assay, Pierce). The homogenate was kept cold during the whole procedure. The membranes were kept at −80° C. until use. Assay was performed in a 384 well Optiplate (PerkinElmer) in a total volume of 40 ul. Membranes were mixed with SPA beads.

| Binder | hCTR funct. EC50 [1] | Ratio hCT/hAmylin binding [2] |
| --- | --- | --- |
| K([γGlu-C20 diacid])CNTATCATQRLANFLRHSSPNFGAIPSSTNVGSNTY-NH2 (disulfide 2-7; N-terminus assumed; SMILES CC[C@H](C)[C@H](NC(=O)[C@H](C)NC(=O)CNC(=O)[C@H](Cc1ccccc1)NC(=O)[C@H](CC(N)=O)NC(=O)[C@@H]1CCCN1C(=O)[C@H](CO)NC(=O)[C@H](CO)NC(=O)[C@H](Cc1c[nH]cn1)NC(=O)[C@H](CCCNC(=N)N)NC(=O)[C@H](CC(C)C)NC(=O)[C@H](Cc1ccccc1)NC(=O)[C@H](CC(N)=O)NC(=O)[C@H](C)NC(=O)[C@H](CC(C)C)NC(=O)[C@H](CCCNC(=N)N)NC(=O)[C@H](CCC(N)=O)NC(=O)[C@@H](NC(=O)[C@H](C)NC(=O)[C@@H]1CSSC[C@H](NC(=O)[C@@H](N)CCCCNC(=O)CC[C@H](NC(=O)CCCCCCCCCCCCCCCCCCC(=O)O)C(=O)O)C(=O)N[C@@H](CC(N)=O)C(=O)N[C@@H]([C@@H](C)O)C(=O)N[C@@H](C)C(=O)N[C@@H]([C@@H](C)O)C(=O)N1)[C@@H](C)O)C(=O)N1CCC[C@H]1C(=O)N[C@@H](CO)C(=O)N[C@@H](CO)C(=O)N[C@H](C(=O)N[C@@H](CC(N)=O)C(=O)N[C@H](C(=O)NCC(=O)N[C@@H](CO)C(=O)N[C@@H](CC(N)=O)C(=O)N[C@H](C(=O)N[C@@H](Cc1ccc(O)cc1)C(N)=O)[C@@H](C)O)C(C)C)[C@@H](C)O, analogue of human amylin; also called compound 48) [N^ε1-[(4S)-4-carboxy-4-(19-carboxynonadecanoylamino)butanoyl]-[Arg17,Pro21,Pro27]-h-amylin] | 1.97 nM | – |
| KCNTATCATQRLAEFLRHSSPNFGAIPSSTNVGSNTY (C20 diacid-gGlu acylated on the alpha amino group of the N-terminal residue (Lys 1); disulfide Cys2-Cys7; C-terminal amide, Derivative of human amylin; also called compound 9) [N^α1-[(4S)-4-carboxy-4-(19-carboxynonadecanoylamino)butanoyl]-[Glu14,Arg17,Pro21,Pro27]-h-amylin] | – | 8 |
| {C20 diacid-γGlu-γGlu}-KCNTATCATQRLAEFLRHSSPNFGAIPSSTNVGSNTP-NH2 (disulfide 2-7; SMILES CC[C@H](C)[C@H](NC(=O)[C@H](C)NC(=O)CNC(=O)[C@H](Cc1ccccc1)NC(=O)[C@H](CC(N)=O)NC(=O)[C@@H]1CCCN1C(=O)[C@H](CO)NC(=O)[C@H](CO)NC(=O)[C@H](Cc1c[nH]cn1)NC(=O)[C@H](CCCNC(=N)N)NC(=O)[C@H](CC(C)C)NC(=O)[C@H](Cc1ccccc1)NC(=O)[C@H](CCC(=O)O)NC(=O)[C@H](C)NC(=O)[C@H](CC(C)C)NC(=O)[C@H](CCCNC(=N)N)NC(=O)[C@H](CCC(N)=O)NC(=O)[C@@H](NC(=O)[C@H](C)NC(=O)[C@@H]1CSSC[C@H](NC(=O)[C@H](CCCCN)NC(=O)CC[C@H](NC(=O)CC[C@H](NC(=O)CCCCCCCCCCCCCCCCCCC(=O)O)C(=O)O)C(=O)O)C(=O)N[C@@H](CC(N)=O)C(=O)N[C@@H]([C@@H](C)O)C(=O)N[C@@H](C)C(=O)N[C@@H]([C@@H](C)O)C(=O)N1)[C@@H](C)O)C(=O)N1CCC[C@H]1C(=O)N[C@@H](CO)C(=O)N[C@@H](CO)C(=O)N[C@H](C(=O)N[C@@H](CC(N)=O)C(=O)N[C@H](C(=O)NCC(=O)N[C@@H](CO)C(=O)N[C@@H](CC(N)=O)C(=O)N[C@H](C(=O)N1CCC[C@H]1C(N)=O)[C@@H](C)O)C(C)C)[C@@H](C)O, Derivative of human amylin; also called compound 14) | – | 2.2 |
| {C20 diacid-γGlu}-KCNTATCATQRLAEFLRHSSPNFGAIPSSTNVGSNTP-NH2 (disulfide 2-7, Derivative of human amylin; also called compound 8) | – | 0.5 |

Results, then the binder that gave them:

| hCTR funct. EC50 [1] | Ratio hCT/hAmylin binding [2] | Binder |
| --- | --- | --- |
| 10.1 nM | – | K([AEEA-γGlu-C20 diacid])RCNTATCATQRLANFLRHSSPNFGAIPSSTNVGSHTY-NH2 (disulfide 3-8; N-terminus assumed; SMILES CC[C@H](C)[C@H](NC(=O)[C@H](C)NC(=O)CNC(=O)[C@H](Cc1ccccc1)NC(=O)[C@H](CC(N)=O)NC(=O)[C@@H]1CCCN1C(=O)[C@H](CO)NC(=O)[C@H](CO)NC(=O)[C@H](Cc1c[nH]cn1)NC(=O)[C@H](CCCNC(=N)N)NC(=O)[C@H](CC(C)C)NC(=O)[C@H](Cc1ccccc1)NC(=O)[C@H](CC(N)=O)NC(=O)[C@H](C)NC(=O)[C@H](CC(C)C)NC(=O)[C@H](CCCNC(=N)N)NC(=O)[C@H](CCC(N)=O)NC(=O)[C@@H](NC(=O)[C@H](C)NC(=O)[C@@H]1CSSC[C@H](NC(=O)[C@H](CCCNC(=N)N)NC(=O)[C@@H](N)CCCCNC(=O)COCCOCCNC(=O)CC[C@H](NC(=O)CCCCCCCCCCCCCCCCCCC(=O)O)C(=O)O)C(=O)N[C@@H](CC(N)=O)C(=O)N[C@@H]([C@@H](C)O)C(=O)N[C@@H](C)C(=O)N[C@@H]([C@@H](C)O)C(=O)N1)[C@@H](C)O)C(=O)N1CCC[C@H]1C(=O)N[C@@H](CO)C(=O)N[C@@H](CO)C(=O)N[C@H](C(=O)N[C@@H](CC(N)=O)C(=O)N[C@H](C(=O)NCC(=O)N[C@@H](CO)C(=O)N[C@@H](Cc1c[nH]cn1)C(=O)N[C@H](C(=O)N[C@@H](Cc1ccc(O)cc1)C(N)=O)[C@@H](C)O)C(C)C)[C@@H](C)O, analogue of human amylin, extended by Lys at the N-terminus; also called compound 45) |
| – | 1.2 | K([γGlu-γGlu-C20 diacid])CNTATCATQRLAEFLRHSSPNFGAIPSSTNVGSNTP-NH2 (disulfide 2-7 (inferred), Derivative of human amylin; also called compound 13) |
| – | 1.2 | {C20 diacid-γGlu}-KCNTATCATQRLADFLRHSSPNFGAIPSSTNVGSNTP-NH2 (disulfide 2-7; SMILES CC[C@H](C)[C@H](NC(=O)[C@H](C)NC(=O)CNC(=O)[C@H](Cc1ccccc1)NC(=O)[C@H](CC(N)=O)NC(=O)[C@@H]1CCCN1C(=O)[C@H](CO)NC(=O)[C@H](CO)NC(=O)[C@H](Cc1c[nH]cn1)NC(=O)[C@H](CCCNC(=N)N)NC(=O)[C@H](CC(C)C)NC(=O)[C@H](Cc1ccccc1)NC(=O)[C@H](CC(=O)O)NC(=O)[C@H](C)NC(=O)[C@H](CC(C)C)NC(=O)[C@H](CCCNC(=N)N)NC(=O)[C@H](CCC(N)=O)NC(=O)[C@@H](NC(=O)[C@H](C)NC(=O)[C@@H]1CSSC[C@H](NC(=O)[C@H](CCCCN)NC(=O)CC[C@H](NC(=O)CCCCCCCCCCCCCCCCCCC(=O)O)C(=O)O)C(=O)N[C@@H](CC(N)=O)C(=O)N[C@@H]([C@@H](C)O)C(=O)N[C@@H](C)C(=O)N[C@@H]([C@@H](C)O)C(=O)N1)[C@@H](C)O)C(=O)N1CCC[C@H]1C(=O)N[C@@H](CO)C(=O)N[C@@H](CO)C(=O)N[C@H](C(=O)N[C@@H](CC(N)=O)C(=O)N[C@H](C(=O)NCC(=O)N[C@@H](CO)C(=O)N[C@@H](CC(N)=O)C(=O)N[C@H](C(=O)N1CCC[C@H]1C(N)=O)[C@@H](C)O)C(C)C)[C@@H](C)O, Derivative of human amylin; also called compound 10) |
| – | 1 | {C20 diacid-γGlu}-KCNTATCATQRLAEFLRHSSPNFGAIPSSTNVGSDTP-NH2 (disulfide 2-7; SMILES CC[C@H](C)[C@H](NC(=O)[C@H](C)NC(=O)CNC(=O)[C@H](Cc1ccccc1)NC(=O)[C@H](CC(N)=O)NC(=O)[C@@H]1CCCN1C(=O)[C@H](CO)NC(=O)[C@H](CO)NC(=O)[C@H](Cc1c[nH]cn1)NC(=O)[C@H](CCCNC(=N)N)NC(=O)[C@H](CC(C)C)NC(=O)[C@H](Cc1ccccc1)NC(=O)[C@H](CCC(=O)O)NC(=O)[C@H](C)NC(=O)[C@H](CC(C)C)NC(=O)[C@H](CCCNC(=N)N)NC(=O)[C@H](CCC(N)=O)NC(=O)[C@@H](NC(=O)[C@H](C)NC(=O)[C@@H]1CSSC[C@H](NC(=O)[C@H](CCCCN)NC(=O)CC[C@H](NC(=O)CCCCCCCCCCCCCCCCCCC(=O)O)C(=O)O)C(=O)N[C@@H](CC(N)=O)C(=O)N[C@@H]([C@@H](C)O)C(=O)N[C@@H](C)C(=O)N[C@@H]([C@@H](C)O)C(=O)N1)[C@@H](C)O)C(=O)N1CCC[C@H]1C(=O)N[C@@H](CO)C(=O)N[C@@H](CO)C(=O)N[C@H](C(=O)N[C@@H](CC(N)=O)C(=O)N[C@H](C(=O)NCC(=O)N[C@@H](CO)C(=O)N[C@@H](CC(=O)O)C(=O)N[C@H](C(=O)N1CCC[C@H]1C(N)=O)[C@@H](C)O)C(C)C)[C@@H](C)O, Derivative of human amylin; also called compound 11) |
